Assay results from patent US20130196320A1, “METHOD FOR IMPROVING CLEAVAGE OF DNA BY ENDONUCLEASE SENSITIVE TO METHYLATION” (CELLECTIS, priority 2010, published 2013).

How the values were obtained:
Type in all cases: cell-based, human
[1] = tested on: ADCY9 target CpG in 293H cells; experiment: DNA methylation status of ADCY9 target by bisulfite technique; details: 0.2 and 1 μM; 100% methylated without treatment
Method: The human 293H cells (ATCC) were plated at a density of 1.2×10^6 cells per 10 cm dish in complete medium (DMEM supplemented with 2 mM L-glutamine, penicillin (100 IU/ml), streptomycin (100 μg/ml), amphotericin B (Fongizone: 0.25 μg/ml, Invitrogen-Life Science) and 10% FBS). The cells were pre-treated with 5-aza-deoxycytidine at 0.2 μM or 1 μM, 48 hours before transfection and the treatment was maintained 48 hours post-transfection. The medium was changed every day. The cells were transfected with 5 μg of DNA plasmids encoding meganuclease using Lipofectamine 2000 transfection reagent (Invitrogen) according to the manufacturer's protocol.
The procedure as described in Example 4 was followed to assess the level of DNA methylation, except that we used specific primers to amplify the sequence surrounded the ADCY9 meganuclease recognition site. Primers ADCY9_F1 […] (SEQ ID NO: 43) and ADCY9_R1 […] (SEQ ID NO: 44) were used. PCR products were sequenced directly with primer ADCY9_F2 […] (SEQ ID NO: 45).

[2] = tested on: XPC4 endogenous locus in 293H cells; experiment: Gene targeting induced by XPC4 meganuclease at its endogenous locus, PCR on cellular clones; details: for targeted events, % of the transfected cells: XPC4 meganuclease + repair matrix, n=2
Method: FIG. 11: XPC4 meganuclease efficiency is impaired by DNA methylation in vivo. 293H cells were co-transfected with 3 μg of XPC4 meganuclease expressing vector or empty vector and 2 μg of DNA repair matrix vector in presence or absence of DNA methylation inhibitor (5-aza-2′deoxycytidine). 480 individual cellular clones were analyzed in each condition for the presence of targeted events using specific PCR amplification.
Cell culture as well as general transfection conditions were described in “material and methods” section of part b) above. For this assay, 293H cells were co-transfected with 3 μg of XPC4 meganuclease expressing vector or empty vector and 2 μg of DNA repair matrix. The DNA repair matrix consists of a left and right arms corresponding to isogenic sequences of 1 kb located on both sides of the meganuclease recognition site. These two homology arms are separated by a heterologous fragment of 29 bp (sequence: […], SEQ ID NO: 64). Two days post-transfection, cells were replated in 10 cm dish. Two weeks later, individual clones were picked and subsequently amplified in 96 wells plates for 3 days. 480 individual cellular clones were then analyzed per condition. DNA extraction was performed with the ZR-96 genomic DNA kit (Zymo research) according to the supplier's protocol. The detection of targeted DNA matrix integrations was performed by specific PCR amplification using the primers: XPC4_F4: 5′-[…]-3′ (SEQ ID NO: 41) (located within the 29 bp of heterologous sequence, i.e. SEQ ID NO: 64) and XPC4_R4: 5′-[…]-3′ (located on the genomic sequence outside of the homology) (SEQ ID NO: 42).

[3] = tested on: ADCY9 endogenous locus in 293H cells; experiment: Meganuclease-induced gene targeting assay, ADCY9 locus; details: for targeted events, % of the transfected cells: ADCY9 meganuclease + repair matrix, n=2
Method: FIG. 14: ADCY9 meganuclease efficiency is impaired by DNA methylation in vivo. 293H cells were co-transfected with 5 μg of […] meganuclease expressing vector or empty vector and 2 μg of DNA repair matrix vector in presence or absence of DNA methylation inhibitor (5-aza-2′deoxycytidine). 480 individual cellular clones were analyzed in each condition for the presence of targeted events using specific PCR amplification.
Cell culture as well as general transfection conditions were described in Example 4. For this assay, 293H cells were co-transfected with 5 μg of ADCY9 meganuclease expressing vector and 2 μg of DNA repair matrix. The DNA repair matrix consists of a left and right arms corresponding to isogenic sequences of 1 kb located on both sides of the meganuclease recognition site. These two homology arms are separated by a heterologous fragment of 29 bp (sequence: […], SEQ ID NO: 64). Two days post-transfection, cells were replated in 10 cm dish. Two weeks later, individual clones were picked and subsequently amplified in 96 wells plate for 3 days. 480 individual cellular clones were then analyzed per condition. DNA extraction was performed with the ZR-96 genomic DNA kit (Zymo research) according to the supplier's protocol. The detection of targeted DNA matrix integrations was performed by specific PCR amplification using the primers ADCY9_F4: 5′-[…]-3′ (specific to the 29 bp of heterologous sequence) (SEQ ID NO: 50) and ADCY9_R4: 5′-[…]-3′ (specific to a genomic sequence located outside of the homology arm) (SEQ ID NO: 51).

[4] = tested on: XPC4 target locus in 293H cells; experiment: Meganuclease-induced mutagenesis at XPC4 target locus by deep sequencing, 5-aza-2-deoxycytidine treatment
Method: FIG. 10: Frequencies of mutagenesis events measured by deep sequencing. Cells were pre-treated with 5-aza-2-deoxycytidine at 0.2 μM or 1 μM 48 hours before transfection with XPC4 meganuclease or empty vector. The treatment was maintained 48 hours post-transfection. Two days post-transfection, the genomic DNA was extracted and a PCR with primers surrounding target site was performed. The results were expressed as a percentage of PCR fragments containing a mutation.
The human 293H cells (ATCC) were plated at a density of 1.2×10^6 cells per 10 cm dish in complete medium (DMEM supplemented with 2 mM L-glutamine, penicillin (100 IU/ml), streptomycin (100 μg/ml), amphotericin B (Fongizone: 0.25 μg/ml, Invitrogen-Life Science) and 10% FBS) supplemented with 5-aza-deoxycytidine. The next day, cells were transfected with 3 μg of meganuclease expression vector in the presence of 5-aza-deoxycytidine and Lipofectamine 2000 transfection reagent (Invitrogen) according to the manufacturer's protocol.
Cells were pre-treated with 5-aza-deoxycytidine at 0.2 μM or 1 μM 48 hours before transfection and the treatment was maintained 48 hours post-transfection. As a control, cells not treated with 5-aza-2-deoxycytidine (NT) were used. Extraction of genomic DNA was performed 48 hours after transfection.
After genomic DNA extraction, the XPC4 target locus was amplified with specific primers flanked by specific adaptator needed for HTS sequencing on the 454 sequencing system (454 Life Sciences)
5000 to 10 000 sequences per sample were analyzed.

[5] = absence of meganuclease, with 5-aza-2′deoxycytidine treatment
[6] = absence of 5-aza-2′deoxycytidine
[7] = with 5-aza-2′deoxycytidine (0.2 μM) vs without

In the case of `Nc1ncn([C@H]2C[C@H](O)[C@@H](CO)O2)c(=O)n1` [5-aza-2′deoxycytidine, reference compound], the “amount of methylated CpG within ADCY9 target” value [1] is reported as 40%, the “targeted events” value [2, 5] is reported as “no targeted events could be detected” and the “targeted events” value [3, 5] is reported as “no targeted events could be detected”. For the same molecule, the “mutagenesis” value ([4]; empty vector, 1 μM of 5-aza-2′deoxycytidine) was “low or absent”.

B1: XPC4: engineered meganuclease (SEQ ID NO: 2) designed to cleave xeroderma pigmentosum group C gene (XPC) (protein)
chain: MANTKYNEEFLLYLAGFVDGDGSIIAQIKPNQSHKFKHALQLTFKVTQKTQRRWFLDKLVDEIGVGYVQDSGSVSNYILSEIKPLHNFLTQLQPFLELKQKQANLALKIIEQLPSAKESPDKFLEVCTWVDQVAALNDSKTRKTTSETVRAVLDSLSEKKKSSPAAGGSDKYNQALSKYNQALSKYNQALSGGGGSNKKFLLYLAGFVDSDGSIIAQIKPNQSHKFKHQLSLAFQVTQKTQRRWFLDKLVDRIGVGYVRDRGSVSDYILSKIKPLHNFLTQLQPFLKLKQKQANLVLKIIEQLPSAKESPDKFLEVCTWVDQVAALNDSKTRKTTSETVRAVLDSLSEKKKSSP
In the case of B1, the “targeted events, % of the transfected cells” value (shortened to “targeted events, %”) ([2]; 5-aza-2′deoxycytidine (0.2 μM)) is reported as 12.5%±0.26, the “targeted events, %” value [2, 6] is reported as 1.05%±0.34 and the “increase of targeted event frequency” value [2, 7] is reported as 12 fold. The “PCR fragments carrying a mutation” value ([4]; XPC4 meganuclease, absence of 5-aza-2′deoxycytidine) was 0.2-0.5% and the mutations ([4]; XPC4 meganuclease, samples treated with 5-aza-2′deoxycytidine) was “up to 7.6%”.

B2: ADCY9: engineered meganuclease (SEQ ID NO: 3) designed to cleave adenylate cyclase 9 gene (protein)
chain: MANTKYNEEFLLYLAGFVDGDGSIIAQIKPNQSYKFKHQLSLTFRVTQKTQRRWFLDKLVDEIGVGYVRDSGSVSNYDLSEIKPLHNFLTQLQPFLELKQKQANLVLKIIEQLPSAKESPDKFLEVCTWVDQVAALNDSKTRKTTSETVRAVLDSLSEKKKSSPAAGGSDKYNQALSKYNQALSKYNQALSGGGGSNKKFLLYLAGFVDSDGSIIAQIKPDQSYKFKHQLGLTFQVTQKTQRRWFLDKLVDRIGVGYVRDRGSVSDYILSEIKPLHNFLTQLQPFLKLKQKQANLVLKIIEQLPSAKESPDKFLEVCTWVDQVAALNDSKTRKTTSETVRAVLDSLSEKKKSSP
In the case of B2, the “targeted events, %” value ([3]; 5-aza-2′deoxycytidine (0.2 μM)) is reported as 3.37%±0.66, the “targeted events, %” value [3, 6] is reported as 0.70%±0.14 and the “increase of targeted event frequency” value [3, 7] is reported as 4.8 fold.
